Measurements: US20240270826A1 (NATIONAL RESEARCH COUNCIL OF CANADA, published 2024)

Assays:
[1] = biological target: T1, SARS-CoV-2 S on CHO-S cells (SARS-CoV-2, UniProt P0DTC2 14-1273); assay: flow cytometry, CHO-S cells
T1 construct: whole, on cells

SARS-CoV spike (S) = SARS-CoV spike (S) (SARS-CoV, UniProt P59594 14-1195); assay: ELISA
[2] = biological target: T2, SARS-CoV-2 S1-NTD (aa16-305) (SARS-CoV-2 Wuhan, UniProt P0DTC2 16-305); assay: ELISA
[3] = biological target: T3, SARS-CoV-2 S2 (aa686-1208) (Wuhan) (SARS-CoV-2 Wuhan, UniProt P0DTC2 686-1208); assay: ELISA
T3 construct: NRC; FLAG, 6xHis tags

[4] = biological target: T4, SARS-CoV-2 S1 (aa16-685) (Wuhan) (SARS-CoV-2 Wuhan, UniProt P0DTC2 16-685); assay: ELISA
T4 construct: NRC; FLAG, 6xHis tags

[5] = biological target: T4, SARS-CoV-2 S1 (aa16-685) (Wuhan); assay: ELISA, coated antigen, apparent EC50
[6] = biological target: T5, SARS-CoV-2 spike trimer S (Wuhan, SmT1) (SARS-CoV-2 Wuhan); assay: ELISA, coated antigen, apparent EC50
T5 construct: extracellular domain

[7] = biological target: T2, SARS-CoV-2 S1-NTD (aa16-305); assay: ELISA, coated antigen, apparent EC50

B1: NRCoV2-04 VHH-Fc (Fc fusion)
chain: AVQLVDSGGGLVQPGGSLRLSCAASGSPFSNVVMAWYRQAPGKQRERVAFISGGGIADYIMSVKGRFTISRDNAKNTVYLQMNSLKPEDTAVYYCWSSYESTWGQGTQVTVSS
notes: bivalent VHH-Fc
With B1 the Bmax [1] was 15500, the EC50 [1] was 1.3 nM and the binding result (SARS-CoV spike (S)) was “no binding (tested: 13 nM)”. B1: no binding (tested: 13 nM) [2]; no binding (tested: 13 nM) [3].

B2: NRCoV2-S2F3 VHH-Fc (Fc fusion)
chain: EVQLVQSGGGLVQAGGSLRLSCATSVRILSVPAMGWYRQAPGKEREMVAVITSGGSTNYADSVKGRFTISRDNAKNTVYLQMNSLKLEDTAVYQCNLRDILSQPFWGQGTQVTVSS
notes: bivalent VHH-Fc
With B2 the Bmax [1] was 6950, the EC50 [1] was 2.7 nM and the binding result [4] was “no binding (tested: 13 nM)”. B2: no binding (tested: 13 nM) [2].

B3: NRCoV2-SR16 VHH-Fc (Fc fusion)
chain: QVQLVQSAGGLVQAGGSLRLSCVVSGTTFSRYHMGWHRQAPGKQRDFVAGISTSGAVTYADSAKGRFTISRDNAKNTVYLEMNSLKLEDTALYYCNTGGWDYRSSTFIMGLNWGQGTQVTVSS
notes: bivalent
B3 gave an EC50 [5] of 2.7 nM, an EC50 [6] of 0.59 nM and an EC50 [7] of 0.36 nM.

B4: NRCoV2-SR03 VHH-Fc (Fc fusion)
chain: AVQLVDSGGGLVQAGGSLRLSCAASGSIFSNNHMGWYRQAPGKQRELVAAISSGGKTNYADFAKGRFTISRDNAKNMVYLQMNSLKPEDTAVYYCNRGGWEYRSSYYIMGPHWGQGTQVTVSS
notes: bivalent
B4 showed an EC50 [5] of 0.2 nM, an EC50 [6] of 0.16 nM and an EC50 [7] of 0.17 nM.

B5: NRCoV2-MRed18 VHH-Fc (Fc fusion)
chain: EVQLVESGGGLVQPGGSLRLSCAASTTVFGRNAMGWYRQAPGKERELVATVSDGGTPNYADSVKGRFTISRDNAKNTIYLQMNSLEPEDTAVYYCNYYNYYYGRNFWGQGTQVTVSS
notes: bivalent VHH-Fc
With B5 the Bmax [1] was 10200, the EC50 [1] was 0.9 nM and the binding result [4] was “no binding (tested: 13 nM)”. B5: no binding (tested: 13 nM) [2].

B6: NRCoV2-06 VHH-Fc (Fc fusion)
chain: EVQLVQSGGGLVQAGESLRLSCAASVSTFSSYAMGWYRQAPGKQRELVASIGFVGATYYIDSVKGRFTISRDNAKKTAYLQMNDLKPDDTAVYYCNARHYGGSEYWGQGTQVTVSS
notes: bivalent VHH-Fc
In the case of B6, the Bmax [1] is reported as 13600, the EC50 [1] is reported as 8.1 nM and the binding result (SARS-CoV spike (S)) is reported as “no binding (tested: 13 nM)”. B6: no binding (tested: 13 nM) [2]; no binding (tested: 13 nM) [3].

B7: NRCoV2-03 VHH-Fc (Fc fusion)
chain: EVQLVSSGGGLVQAGGSLRLSCTASGITFSYYAMGWYRQAPGQPRELVASMSNMDSTIYADSVKGRFTISRDNAKTTIYLQMNNLKPEDTAVYFCNIYGPTYSTRRNEYWGQGTQVTVSS
notes: bivalent VHH-Fc
With B7 the Bmax [1] was 16200, the EC50 [1] was 78.9 nM and the binding result (SARS-CoV spike (S)) was “no binding (tested: 13 nM)”. B7: no binding (tested: 13 nM) [2]; no binding (tested: 13 nM) [3].

B8: NRCoV2-S2G3 VHH-Fc (Fc fusion)
chain: QVQLVQSGGGSVQAGGSLRLSCAASGSTFGIFLMGWRRQAPGKQRELVAHITSGGATNYADSVKGRFTISRDNAKNTVYLQMNSLEPEDTAVYYCYTTKRDDASVYWGQGTQVTVSS
notes: bivalent VHH-Fc
B8 was tested, and the Bmax [1] was 7530, the EC50 [1] was 0.3 nM and the binding result [4] was “no binding (tested: 13 nM)”. B8: no binding (tested: 13 nM) [2].

B9: NRCoV2-MRed20 VHH-Fc (Fc fusion)
chain: EVQLVESGGGSVQAGGSLRLSCAASGLSFSSYDMGWFRQAPGKEREFVAAIRESGSGTYYADSVKGRFTISRDNAKNTVYLQVSSLKPEDTAVYTCAAKPPFYGSGTYSTPRAYLYWGQGTQVTVSS
notes: bivalent VHH-Fc
For B9, the Bmax [1] was 6660, the EC50 [1] was 6.5 nM and the binding result [4] was “no binding (tested: 13 nM)”. B9: no binding (tested: 13 nM) [2].

B10: NRCoV2-10 VHH-Fc (Fc fusion)
chain: QLQLQESGGGLVQPGGSLTLSCAASGNTFSRSNMHWYRQAPGAQREWVAAISSRGISTYAYSAKGRFTISRDNAKNTVSLQMNSLKPEDTAVYYCYAADDLGDYWGQGTQVTVSS
notes: bivalent VHH-Fc
For B10, the Bmax [1] was 28000, the EC50 [1] was 1.3 nM and the binding result (SARS-CoV spike (S)) was “no binding (tested: 13 nM)”. B10: no binding (tested: 13 nM) [2]; no binding (tested: 13 nM) [3].

B11: NRCoV2-14 VHH-Fc (Fc fusion)
chain: EVQLVSSGGGLVQAGGSLRLSCEASGTTFSHYAVGWYRQAPGKQREWVASISVFGSTTYGGSVAGRFTISRDNDKNTVDLQMNSLKPEDTAVYYCHAVNADIGGDYWGQGTQVTVSS
notes: bivalent VHH-Fc
For B11, the Bmax [1] was 18800, the EC50 [1] was 0.9 nM and the binding result (SARS-CoV spike (S)) was “no binding (tested: 13 nM)”. B11: no binding (tested: 13 nM) [2]; no binding (tested: 13 nM) [3].

B12: NRCoV2-MRed22 VHH-Fc (Fc fusion)
chain: EVQLVESGGGLVQPGGSLRLSCAASGSVFASNAMGWYRQAPGKQRELVATISSRGSTNYADSVKGRFTISRDNAKNTVYLQMNSLGPEDTAVYYCNAREFTGFDYWGQGTQVTVSS
notes: bivalent VHH-Fc
In the case of B12, the Bmax [1] is reported as 5320, the EC50 [1] is reported as 0.2 nM and the binding result (SARS-CoV spike (S)) is reported as “no binding (tested: 13 nM)”. B12: no binding (tested: 13 nM) [4]; no binding (tested: 13 nM) [2].

B13: NRCoV2-S2A4 VHH-Fc (Fc fusion)
chain: QVQLVQSGGGLVQAGGSLRLSCAVSGSPFRSNVMEWYRQAPGKQRELVASISTGGSRTYTDSVKGRFTISRDNAKNEAFLQMNSLKPEDTAVYYCHAAARDSHGIYLLDTWGQGTQVTVSS
notes: bivalent VHH-Fc
In the case of B13, the Bmax [1] is reported as 6860, the EC50 [1] is reported as 0.1 nM and the binding result [4] is reported as “no binding (tested: 13 nM)”. B13: no binding (tested: 13 nM) [2].

B14: NRCoV2-SR02 VHH-Fc (Fc fusion)
chain: EVQLVDSGGGLVQAGGSLRLSCTASEFTLNYYSIGWFRQSPGKEREGVSCIRYSGGGIDYADSVKGRFTISRDNAKNTVYLTMNSLKPEDTAVYYCAADRLYSRACPTAGGRNYWGQGTQVTVSS
notes: bivalent
Binder B14 has an EC50 [5] of 0.13 nM, an EC50 [6] of 0.11 nM and an EC50 [7] of 0.34 nM.

B15: NRCoV2-MRed19 VHH-Fc (Fc fusion)
chain: EVQLVESGGGLVQPGGSLRLSCAASTIIFKGQTMGWFRQAPGNERELVATMTTSGSANYADSVKGRFTISRDNEKTVTLQMNSLKPEDTALYYCYMHSVYYGIDYWGKGTQVTVSS
notes: bivalent VHH-Fc
With B15 the Bmax [1] was 5480, the EC50 [1] was 1.3 nM and the binding result [4] was “no binding (tested: 13 nM)”. B15: no binding (tested: 13 nM) [2].

B16: NRCoV2-MRed07 VHH-Fc (Fc fusion)
chain: EVQLVESGGGLVQPGGSLTLSCAASGSIGPFNTMGWYRQAPGNQREPAAIITRGGVTNYADSVKGRFTISRDNAKNAVYLQMDSLKPDDTAVYYCYANYGWAIPYWGNGTQVTVSS
notes: bivalent VHH-Fc
In the case of B16, the Bmax [1] is reported as 8670, the EC50 [1] is reported as 132 nM and the binding result (SARS-CoV spike (S)) is reported as “no binding (tested: 13 nM)”. B16: no binding (tested: 13 nM) [3].

B17: NRCoV2-05 VHH-Fc (Fc fusion)
chain: EVKLVQSGGGLVQPGGSLRLSCAASGFIFSNYAMNWVRQAPGKGLEWVSGINSGGGDTRYADSVKGRFTVSRDNAKNTLYLQMNSLKPEDTGVYYCSKGPVSSYYGSGYDYRGQGTQVTVSS
notes: bivalent VHH-Fc
With B17 the Bmax [1] was 17400, the EC50 [1] was 0.5 nM and the binding result (SARS-CoV spike (S)) was “no binding (tested: 13 nM)”. B17: no binding (tested: 13 nM) [2]; no binding (tested: 13 nM) [3].

B18: NRCoV2-SR01 VHH-Fc (Fc fusion)
chain: EVQLVQSGGGSVQAGGSLRLSCVASGFTFDNYAIGWFRQAPGKEREGVSCISGNGGVTIYADSVKGRFTISRDNAKNLVYLQMNSLKPEDTAVYYCAATGIRSTWSVYGCSRLAGPYDYWGQGTQVTVSS
notes: bivalent
Work on B18 yielded an EC50 [5] of 0.23 nM, an EC50 [6] of 0.13 nM and an EC50 [7] of 0.19 nM.

B19: NRCoV2-S2G4 VHH-Fc (Fc fusion)
chain: QVQLVQSGGGLVQAGGSLTLSCAPSGSTFSGYATNWYRQAPGKQRELVATISSDGDKNYADSVKGRFTISRDNAKNTVYLQMNSLKPEDTAVYYCNKHWWTGDWWGQGTQVTVSS
notes: bivalent VHH-Fc
With B19 the Bmax [1] was 6900, the EC50 [1] was 0.3 nM and the binding result [4] was “no binding (tested: 13 nM)”. B19: no binding (tested: 13 nM) [2].

B20: NRCoV2-SR04 VHH-Fc (Fc fusion)
chain: QVQLVESGGGLVQAGGSLRLSCAASGRTFSSHTVGWYRQAPGKQRDLVAAISMGGNTNYADYADSVKGRFTISRDNAKNTLYLQMNSLKPEDTAVYYCNTAALVGNRLLPMATITWGQGTQVTVSS
notes: bivalent
B20 showed an EC50 [5] of 0.25 nM, an EC50 [6] of 0.2 nM and an EC50 [7] of 0.17 nM.

B21: NRCoV2-02 VHH-Fc (Fc fusion)
chain: EVQLVESGGGLVQAGGSLRLSCAASGFTFSNYAMNWVRQAPGKGLEWVSGISGRGDDTRYADSVKGRFTISRDNAKNTLFLQMRSLRPEDTGVYRCTKGPDLYYFGSGYSDRGQGTQVTVSS
notes: bivalent VHH-Fc
In the case of B21, the Bmax [1] is reported as 18600, the EC50 [1] is reported as 0.3 nM and the binding result (SARS-CoV spike (S)) is reported as “no binding (tested: 13 nM)”. B21: no binding (tested: 13 nM) [2]; no binding (tested: 13 nM) [3].

B22: NRCoV2-SR13 VHH-Fc (Fc fusion)
chain: EVQLVESGGGLVTTGGSLRLSCATSGSRFGSKHMAWYRQAPGKQRDLVAAISSGGSTHYGSSVKGRFTISRDNAKSTVYLQMNSLNPEDTAVFYCNMGGWDYRSNTYIPGSRSDYWGQGTQVTVSS
notes: bivalent
With B22 the EC50 [5] was 0.43 nM, the EC50 [6] was 0.43 nM and the EC50 [7] was 0.23 nM.
